Among the data in a protein production outcome set (Wang et al. 2014) are protein production values, retold here.

The nature of the series: label from the status in PepcDB records.
“MPAPHPDSSVAPTTRLIAERALAAVFQPIVDLGSGTVVGYEGLIRGPRGTDLEPPAALFAQAARDGTTIALEQAAALACLDAFAALGCDGKLFLNFSAGTIVQLVRERERARQLLGRAGVGAERIVIELTEQTAMPDVARIEPAVASLRDAGIQFALDDYGTANASMNLWLRLHPDVVKIDRFFIHDIARDPLKFEAVRAMQHFAHASGAQLIAEGIENASDLIVVRDMGICCVQGFLLGRPNARPSPVVAPAARDAIRTPHIAVFPGAMRTARPAGTIAAKMLVPAPALPRDATSNDVLDLFNRMPGLHAVALVERGRPVALVNRRGFIDRFTLPYHREVFGKKPCLQFANDAPLMIDNATSVEQLAMLLASHDQRYLADGFVITEHGRYLGLGTGESLVRAVTEMRIEAARYANPLTFLPGNIPISAHIDRLLERDAGFHACYVDLNQFKPFNDQYGYWQGDEVLKFAATVLAGVCDPQRDFLGHVGGDDFLVLFQRDDWRARATDAIARFNDGAQRFYTQADRLAGGLRGEDRHGNPAFFGFVTMAIGAVGVPAGAHGAMRYGSDEIASVAALAKRRAKQQPGGLAVVDLDAGRAALRERGEPPLAAAG”: the protein production result is “failed”.

As to “MPAQQAEQAANLGLAGFQFLAQGVFAALLLQLHAFEFGARLTADLPLALLVGMLGAEGLFGLARAVFAHPLGGRLGLAARLGPGFAGFHERLYLRNVTQSE”, the protein production result is “failed”.

For “MPAQTNLKPVLTAAQVNVLMETVYPQLNEQFKYYEAIDVFPGGCTVRLNAGERHLRPGGTVSGPSLFTLADIGGYVCVLSHAGPDALSVTVNLDINFVRKAEAGPIDGHCRILKLGKSLMVFAIDIVAGPEGQTIAHATGTYSIPPKRIGDVVK”, the protein production entry is reported as “failed”. Turning to “MPASCQETARLLLRAPTLDDLPQACAIHGDPQTNRFNPNGPINAAACADKLHGWIEHWQQHGFGYWAIALRSDPQRLIGFGGIMQGFFGHEPGLNLYFRLRPEAWGQGYAAEMARAALHLAFSELHAPRVTGLVRPDNLPSRRALERLGLSLDGELDDFPGQAPSLLYRISAPDNPVPG”, the protein production entry is given as “failed”. Regarding “MPASVMTDLSAAWAAFEAHDYALAERQAQALLAHPATASGARFMLGYVYAFMDRFDEARASFQALQQQAQKSGDHTAEHRALHQVGMVERMAGNWDAARRCFLEERELLASLPEDPLAASANAYEVATVALHFGDLAGARQEYEKSLVYAQQADDQVAIACAFRGLGDLAQQEKNLLEAQQHWLRARDIFAELEDSEAVNELMTRLNGTEG”, the protein production result is given as “failed”.

As to “MPAVARIDPKTIFTPDEWARLTHRSSARGLWLVAHAWGCIALAVALVTIWPNPLTWLIAVMIVGTRQLGLAILMHEAAHGGLHCNPKLNEWIGQWLCAVPVGADLPAYRRYHLQHHKYTQQPEDPDLVLSAPFPISKDSFVRKAIRDLTGQTFVKQRLPALKALFAPADSGAPKHDSFVASGKARTQRFLAANAVLLALFWLAGAGVWFVGVWLVAMATWLPLVTRVRNIAEHACTSTGADPFSQARTTLANPIERALIAPYWVNYHAEHHLFMYLPCYNLPEAHRLLRDKGLIDRVTVAPSYRDVLKLATTRPRAVAAE”, the protein production entry is “failed”. Consider “MPCVQAQYGSSPQGASPASQSYSYHSSGEYSSDFLTPEFVKFSMDLTNTEITATTSLPSFSTFMDNYSTGYDVKPPCLYQMPLSGQQSSIKVEDIQMHNYQQHSHLPPQSEEMMPHSGSVYYKPSSPPTPTTPGFQVQHSPMWDDPGSLHNFHQNYVATTHMIEQRKTPVSRLSLFSFKQSPPGTPVSSCQMRFDGPLHVPMNPEPAGSHHVVDGQTFAVPNPIRKPASMGFPGLQIGHASQLLDTQVPSPPSRGSPSNEGLCAVCGDNAACQHYGVRTCEGCKGFFKRTVQKNAKYVCLANKNCPVDKRRRNRCQYCRFQKCLAVGMVKEVVRTDSLKGRRGRLPSKPKSPQEPSPPSPPVSLISALVRAHVDSNPAMTSLDYSRFQANPDYQMSGDDTQHIQQFYDLLTGSMEIIRGWAEKIPGFADLPKADQDLLFESAFLELFVLRLAYRSNPVEGKLIFCNGVVLHRLQCVRGFGEWIDSIVEFSSNLQNMNIDISAFSCIAALAMVTERHGLKEPKRVEELQNKIVNCLKDHVTFNNGGLNRPNYLSKLLGKLPELRTLCTQGLQRIFYLKLEDLVPPPAIIDKLFLDTLPF”, for which the protein production result is on record as “not failed”. As to “MPDASAENPWLPLRQLTPARIALGRTGTSLPTRPQLDFQYAHAQARDAVHLPFDHAAISDGLRQRGRDSLLLHSAAADRHVYLQRPDLGRRLDEASVQRLREHAAGYDGQIDLAIVVADGLSALAVQRHTLPFLERLEEQALAEGWSLSPVVLVEQGRVAVADEIGELLRAKMSVILIGERPGLSSPDSLGLYFTWAPRVGLTDAYRNCISNVRLEGLSYGMAAHRLLYLMREACRRQLSGVNLKDEAEVQALDGEAPRTGNFLLAR”, the protein production entry is listed as “failed”. Regarding “MPDLGLTDAESLGHCLFDTGFGVCGIAWRAFEGKDEAPVVTLFLLPEATAAGTAAAMARRCGGSPTVPPPAIAEVIEKVRRHFRGDLQDFSRVRVEPDGAGPFARAVYSAARDVPAGQIRTYGELARALNRPAAARAVGQALGRNPVPLIIPCHRILGAGGKLGGFSAHGGVATKARMLRLEGVAV”, the protein production entry was “failed”. In the case of “MPDLMHSELTMSGPEQSLLAGALLGAGLPADAHRHLELAGRDYQSEALAEQHLREAHLLAPDHAAVLIGLYRFYFYKGRLGEALEVAQACLCKAARDNGLASDWRKVRRGDAEFSSYSAVLPRFYLFALKAYAYLQMRLGQLDEGHAAVEKLLELDPTDKVGAAVLLDVWRRIGLEHHHHHH”, the protein production result is listed as “not failed”. For the sequence “MPECRNCGATLREEYRFCPMCATPQTDEASRRLNQYIEQRATKRQASGGTASSNGAENDGTLRGRLQYAAGYVAIVLGLATVTAVAGVFFLLAGLFLLPPIHGRIESAVGRRLGPAPTAGVAGVLAAFGLVVFVFL”, the protein production result is on record as “failed”. “MPEIHQSIAQHYHERTKYDPETIASKSQRLDWAKQPVPFKEYKIGSAIDLKPYLQETPEVFVNDTNGQWWQRLSRLLFRSYGLTARMPSMGNTVYLRAAPSAGGLYPAEVYVVSRGTPLLSPGLYNYQCRTHSLIHYWESDVWQSLQEACFWHPALESTQLAIIVTAVFYRSAWRYEDRAYRRICLDTGHLLGNIELSAAITDYRPHLIGGFIDEAVNDLLYIDPLQEGAIAVLPLADLLDIQQNISPGCTALPSATETNYPQVPDGELLKYFHHHTQISASITGKLNLPTVIQEKSLEDKYNFPFCLKISTVSAPIYWGENLSDLEITMHKRRSTRAYNGEELTFDELKALLDFTYQPQNYIDQSLDNSPDYFDLNLIETFIAVCGVQGLEAGCYYYAPKAQELRQIRFKNFRRELHFLCLGQELGRDAAAVIFHTSDLKSAIAQYGDRVYRYLHMDAGHLGQRLNLAAIQLNLGVSGIGGFFDDQVNEVLGIPNDEAVIYITTLGRPR”: the protein production result is on record as “not failed”.

For “MPEILINYKTNREDYKRQSKYCNICMRRYKSVKKNVIILALMIVFVFVFGTVAFHLIEGWNLFDSFFFTLITVSTVGYSIPENLSQAGKVIASILISAGVTIVLYGFTSVTSMIVEGHIGEYFKSRRMRKMIDRLKDHFIVVGAGRTGRHTTLEIMKAKKPFVVIDQSEEAIARLKDFLGEEFPYVVGDATEEEILMKAGVERARSLVVTLPDDAKSTFVVLTAKSLNPNLEIVSRVSDMKALSKLVYAGADKVIATSELAGVRLAQMALNPTTISFLDILSFGEESFRIEEVVIPPESPVANKTLGEINLAKRAGTIVIAIRRGGEVIFNPTGDTKILPEDRLMVVGKSDHFEKLHRLIEEG”, the protein production entry is recorded as “failed”.

“MPEISPYVTKTEVQLMMAGLDYRKTNGSRDTAPKGQLPWIVDAAQAIADSTFIRVHIERKYDVDLDFGLTGRERAQAWAIERMIENQLGWVSTYFRFLEPANFERGPARAFDQAPGHLRDELRQGLREAVAANIRAVGVGRHLREEVAWLGGLSLRALDELLEDKAYLMRDAYPVGVDATAFAMLAAIMTPFFDSPLRRQAERYPRLVAYVGRMMERFYPAHPWGLRQAA”: the protein production result is “failed”. On to “MPEITESERAYHLRKMKTRMQRVDVTGDGFISREDYELIAVRIAKIAKLSAEKAEETRQEFLRVADQLGLAPGVRISVEEAAVNATDSLLKMKGEEKAMAVIQSLIMYDCIDTDKDGYVSLPEFKAFLQAVGPDLTDDKAITCFNTLDFNKNGQISRDEFLVTVNDFLFGLEETALANAFYGDLVD”, for which the protein production result is recorded as “not failed”. For “MPEKPTEDARFYGRRKGKPLRATRQRLLDTMLPALTLPLAGLGEGERLDPRGLFPRPVDQLWLEIGFGGGEHLVAQAAAHPEVGLIGSEVFAYGVGKALSQIDETGVDNIRLWPEDVRQVLPALPDGCLQRLFVLFPDPWPKRRHARRRMIQPARLDDFARLLADGGELRVASDDMGYVRWTLMHVTAHPAFRWTAQGPTDWRERPADWVETRYEAKALQAGRKPAYLIFRRRPRAADPGTLAEAPAGEGADNNP” the value was “failed”. As to “MPELILKPCEPVRSALKQDVAALEAPPTGGNVDKSATTSNSVTPATSAAPSPAPASEKGEDKDKDSEKEKDKTSAEKSEVKQEQEAEEDKKPGDVKQENPVEEAAGDTKPSDAEVKTEVAKTEPKEETKDPEVKEEPKTEEKEKEKVDDKKPIPPTTVIDDDDDDVMIVKEDGELEKPSASSPKDQKAVAAATSAATGATGK”, the protein production entry is recorded as “failed”. For “MPEQTYMYAYVTLPHHDQRERYTQKCYRDGRRIVLASYDLMGSERFSFKEKLRKSMKGMNESAERWVSEVRQGENLNSIDNYYRLYKGKI”, the protein production result is listed as “failed”. As to “MPEVIFNGPAGRLEGRYQPSKEKSAPIAIILHPHPQFGGTMNNQIVYQLFYLFQKRGFTTLRFNFRSIGRSQGEFDHGAGELSDAASALDWVQSLHPDSKSCWVAGYSFGAWIGMQLLMRRPEIEGFMSIAPQPNTYDFSFLAPCPSSGLIINGDADKVAPEKDVNGLVEKLKTQKGILITHRTLPGANHFFNGKVDELMGECEDYLDRRLNGELVPEPAAKRIR”, the protein production result is reported as “not failed”. On to “MPFAIGQRWLSESENALGLGVITALDQRTVTIYFPAADETRIYAMAQAPLSRIVFSKGETLSHQAGWQGEILDVQNMNGLLFYLVKNPQDEDVIVQERDISPIISFSQAKDRLFSAQI”, for which the protein production result is recorded as “failed”. With “MPFCPEEFYCRITQNIESLNNIAKIQHAANTDYLTDLANRRAFFRSAESRIKEYINKKVPYCLAMIDVDFFKKVNDTYGHDSGDQVLKVIALYMRKHFGAGLTARLGGEEFAVLLHGLDADYLHNKLDDFRREIAVSSIPAGDTSISITLSLGVVFDSEDELSKQMNEADNALYAAKENGRNQIVVFGAELDDLEHHHHHH”, the protein production result is “failed”.

On to “MPFGLKSSQSIDDKFMSITQMKNLIHYVKKNDALSHLCIYILIITGSRFKPVQHLRYEDLNFKKSCIHLNDTKNKYSKRNVKVRIKDLEYIQSVINKHPINQNGYIFHNFINFISYSAINDVLVRFCLKYKYDKYTLKSLRHTHCSYLLAKGISIQYISKRLGHADIHTTLKIYSHLIKEFEDSENSLIEKNLNDLFSDLEHHHHHH”, for which the protein production entry was “not failed”.

For the sequence “MPFKEYDHDFIDKNKKASSSVRLALLLSVLIIIFNLLFFKHRDFQEQLHNNPGSYTDLIALVFLFFILSCTSKISLNHTSALSIRLGLHVWICSATFDFMDEFIYQPKLVGYYVEDMLRIIGMFGVGFGVYTLIQQINNKYVEARIQSFSDELTQLPNRRFFINELKKLEAKTPYLFIIDIDNFKVINDKYGHTKGDEILSKFGHILSRFDNSEVVATRIGGEEFAIILYAGTQDRAEKLAREVLKNANKIIIKNMHHLSVSIGAGKKQPQEPTEHFMKRVDVALYQAKNTGKGKVEWALEPKEKTQ”, the protein production result is given as “failed”. For “MPFLLTLLAFLRVLRRLLKDEKFRALLYITAFTLAIGTFFYHSVEGWDWLDSLYFSVITLTTVGYGDFTPKTNIGKFFTIIYIFIGLGILVAFVTPIGEYIVDRRLDRIQEREQKKEIPENEFDFSGVIGKLRGKK”, the protein production entry was “failed”.
